What all share (type): cell-based, human
The subject of experiment [1] is MF CD34+ cells co-cultured with splenic EC. As to the kind of experiment: Proliferation of MF CD34+ cells co-cultured with LCN2 treated splenic endothelial cells. Particulars: FIG. 4B. The source says: FIGS. 4A and 4B illustrate that addition of a CXCR1/CXCR2 inhibitor reverses effects of IL-8 on MF CD34^+ cells proliferation and lineage differentiation. FIG. 4A illustrates that IL-8 decreased the fraction of normal CD34^+, CD41^+, and CD33^+ cells, but increased the fraction of MF CD34^+, CD41^+, and CD33^+ cells. The effects of IL-8 were eliminated by the addition of the CXCR1/CXCR2 inhibitor ladarixin (Ladx). Normal CD34/CD41/CD33: left bars. MF CD34/CD41/CD33: Right bars. FIG. 4B illustrates that splenic endothelial cells (ECs) promote the proliferation of hematopoietic CD34^+ cells. Shown is fold change in CD34^+ cells cultured alone in the absence of cytokines and that the numbers are increased when the CD34^+ cells were co-cultured with LCN2 treated endothelial cells. The effects of co-cultivation with ECs were eliminated by addition of the CXCR1/CXCR2 antagonist reparixin (RPX).
Similarly, while treatment with LCN2 enhances endothelial cell (EC)-mediated proliferation of MF cells, treatment with the CXCR1/CXCR2 inhibitor reparixin decreased MF CD34^+ proliferation when co-cultured with splenic EC (FIG. 4B).

The subject of a further experiment is MF CD34+ cells. As to the kind of experiment: Colony forming assay (CFU-GM) of cultured MF CD34+ cells with IL-8. Particulars: co-treatment with reparixin, FIG. 5A. The source says:
FIGS. 5A, 5B. 5C, 5D, and 5E illustrate that a CXCR1/CXCR2 inhibitor reverses effects of IL-8 on MF CD34^+ cell colony formation. […] CFU-GM=colony-forming unit-granulocyte-macrophage. FIGS. 5B and 5C illustrate that IL-8 increased CFU-GM colony formation by MF CD34^+ cells in a dose dependent fashion and that the effects of IL-8 were inhibited by treatment with Ladx. FIG. 5B. Normal cells. FIG. 5C. MF cells. […] Con=control. IL-8 concentrations increase from left to right. […] P values were as follows: w/o Ladx: Con vs IL-8—10 ng: 0.159332; Con vs IL-8—20 ng: 0.011976; Con vs IL-8—50 ng: 0.00262; Con vs IL-8—100 ng: 0.00042; w/ 10 μM Ladx: Con vs Ladx: 0.315782; IL-8—10 ng vs plus Ladx: 0.295851; IL-8—20 ng vs plus Ladx: 0.077726; IL-8—50 ng vs plus Ladx: 0.031355; IL-8—100 ng vs plus Ladx: 0.081595.

Experiment [2] has as its system normal splenic stromal cells. As to the kind of experiment: IL-8 and CXCL1 mRNA and protein levels in normal splenic stromal cells treated with LCN2. Particulars: treatment with LCN2, FIGS. 3A and 3B. The source says: FIGS. 3A, 3B, and 3C illustrate that reduction of IL-8 blocks VEGF, which is involved in the development of splenic endothelial cells (EC)/MF HSC niches. FIGS. 3A and 3B illustrate that LCN2 increases IL-8 and CXCL1 protein and mRNA levels in spleen stromal cells. Con: left bars. LCN2: right bars. FIG. 3C illustrates that IL-8 regulates VEGF expression. si=silencing. Ab=antibody. Con=control.
Lipocalin2 (LCN2) is a cytokine produced by MF marrow myeloid cells. Levels of LCN2 are 2-3 fold greater in the circulation of MF patients as compared to PV and ET patients and even higher as compared to healthy controls. […] IL-8 and the related chemokine CXCL1 are pro-angiogenic creating a cascade of cytokines (VEGF) contributing to the development of splenic EC/MF HSC niches. […] The positive impact of IL-8 on VEGF expression was blocked by an IL-8 neutralizing antibody.

Turning to `CC(C)Cc1ccc([C@@H](C)C(=O)NS(C)(=O)=O)cc1` [reparixin, R-(-)-2-(4-isobutylphenyl)-N-methanesulfonyl propionamide], in experiment [1] (reparixin added to co-culture), the “MF CD34+ proliferation when co-cultured with splenic EC” value is on record as “decreased”. In the experiment with MF CD34+ cells, the “effect on IL-8 enhanced colony output of MF CD34+ cells” value is “ameliorated”.

B1: LCN2: Lipocalin2 (LCN2) is a cytokine produced by MF marrow myeloid cells (protein, UniProt P80188 21-198, looked up)
Neutrophil …: QDSTSDLIPAPPLSKVPLQQNFQDNQFQGKWYVVGLAGNAILREDKDPQKMYATIYELKEDKSYNVTSVLFRKKKCDYWIRTFVPGCQPGEFTLGNIKSYPGLTSYLVRVVSTNYNQHAMVFFKKVSQNREYFKITLYGRTKELTSELKENFIRFSKSLGLPENHIVFPVPIDQCIDG
For B1, in experiment [1] (LCN2 treated endothelial cells), the “endothelial cell (EC)-mediated proliferation of MF cells” value is “enhances”. For the same molecule, in experiment [2], the “CXCL1 mRNA and protein levels” value was “significant increase”; the “IL-8 mRNA and protein levels” value was “significant increase”.

The values above are taken from patent publication US20240115527A1, “CXCR1/CXCR2 INHIBITORS FOR USE IN TREATING MYELOFIBROSIS” (Icahn School of Medicine at Mount Sinai, priority 2020, published 2024).
